According to the supplement of paper PMC10567573:

B1: PPEF2 (parent)
chain: FIPSSHNDRDFLTRIFTEDRFAQD

Variants of: B1
Assay: protein stability index of a GFP-peptide fusion (GPS, HEK-293T) (PSI 1-6); higher = more stable
Details: c terminus: a fixed tail appended
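Note: lentivirally expressed fusions sorted by FACS into six bins by GFP to DsRed ratio, PSI derived from sequencing read proportions per bin multiplied by bin number.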

Protein stability index: each site, then its substitutions
T13: D 1.83 | E 2 | F 1.5 | G 2.42 | H 1.6 | I 2.21 | K 1.38 | L 3.13 | N 1.7 | P 1.82 | Q 1.55 | R 1.91 | S 1.83 | V 1.8 | Y 2.65
R14: A 1.58 | C 1.78 | D 2.5 | E 2.34 | F 2.7 | G 1.95 | H 2.04 | I 2.61 | K 1.55 | L 2 | M 2.55 | N 2.12 | P 2.81 | Q 1.93 | S 3.48 | T 2.36 | V 3.04 | W 2.5 | Y 1.7
I15: A 1.61 | C 3.07 | D 2.01 | E 2.44 | F 2.2 | G 1.98 | H 2.4 | K 2.77 | L 1.56 | M 2.24 | N 1.83 | P 1.91 | Q 2.19 | R 2.9 | S 1.84 | T 2.45 | W 2.66 | Y 2.22
F16: A 1.76 | C 2.48 | D 2.18 | E 2.02 | G 1.92 | H 1.69 | I 1.83 | K 1.47 | L 1.91 | M 1.84 | N 2.12 | P 2.96 | Q 2.06 | R 1.88 | S 1.72 | T 2.59 | V 2.6 | Y 1.21
T17: A 1.71 | C 3.8 | D 1.95 | E 2.19 | F 1.87 | G 2.7 | H 1.54 | I 2.08 | K 3.08 | L 2.65 | M 2.54 | N 1.68 | P 1.97 | Q 1.79 | R 1.73 | S 2.05 | V 1.85 | W 2.79 | Y 2.08
E18: A 2.64 | C 2.79 | D 2.37 | F 2.52 | G 1.48 | H 3.19 | I 3.03 | K 2.47 | L 2.19 | M 2.96 | N 2.12 | P 2.98 | Q 1.71 | R 2.16 | S 2.18 | T 2.27 | V 2.51 | W 2.25 | Y 1.54
D19: A 3.2 | C 2.12 | E 2.32 | F 1.77 | G 2.46 | H 1.54 | I 2.76 | K 2.44 | L 1.96 | M 3.16 | N 1.57 | P 1.99 | Q 1.68 | R 1.8 | S 2.51 | T 2.8 | V 2.14 | W 1.99 | Y 1.79
R20: A 2.05 | C 2.1 | D 2.42 | E 1.81 | F 2.24 | G 1.69 | H 3.22 | I 1.32 | K 2.11 | L 2.05 | M 1.39 | N 2.07 | P 2.41 | Q 2.15 | S 2.65 | T 1.47 | V 1.99 | W 2.54 | Y 2.37
F21: A 1.59 | C 1.81 | D 2.52 | E 1.81 | G 1.92 | H 1.87 | I 1.74 | K 1.84 | L 2.27 | M 1.87 | N 2.54 | P 2.02 | Q 1.98 | R 1.75 | S 1.65 | T 1.75 | V 1.64 | W 2.09 | Y 2.27
A22: C 1.95 | D 2.56
